Experiments:
[1] = substrate: OC[C@H]1OC(O)[C@H](O)[C@@H](O)[C@@H]1O; experiment: cells, lysate or membranes; format: cell-based, human; details: other: wild-type GLUT3 in hxt^0 cells
Excerpt: Hexose transporter deficient yeast strains (hxt^0) EBY.VW4000 for expression of GLUT5, EBY.S7 (carrying the fgy1 mutation) for expression of GLUT1-3, and SDY.022 (EBY.S7 Δerg4) for expression of GLUT4 cells, and corresponding plasmids[65],[66],[73] were from the labs of Drs.
The plasmids containing functional constructs of GLUT1-5 were transformed in the corresponding hxt^0 strains[65],[66],[73] (EBY.VW4000 for GLUT5S72Y, EBY.S7 for GLUT1, GLUT2∆loopS_Q455R, GLUT3 and GLUT3S66Y, and SDY.022 for GLUT4) and grown on 2% (w/v) agar plates of the respective media supplemented with 1% (w/v) maltose. An initial culture of ~ 10 ml was started with a few colonies and grown for 2–3 days if the media was SC-uracil with 1% (w/v) maltose (GLUT1, GLUT3, GLUT4) or 1–2 days if the media was YEP with 1% (w/v) maltose and 100 µg/ml geneticin G418 (GLUT2∆loopS_Q455R and GLUT5S72Y). […] Then, cells were transferred in the same media so that OD600nm ~ 0.5 and grown further for 1–2 days.
For transport activity assay, cells in the hexose media were centrifuged (1000×g, 5 min, room temperature), washed once with PBS buffer (10 mM Na2HPO4, 1.8 mM KH2PO4, 2.7 mM KCl, 137 mM NaCl, pH 7.4), and resuspended in PBS buffer at an OD600nm ~ 10; each assay contained 100 µl of this cell solution. […] The radioactivity was determined with a scintillation counter (Tri-carb 2900TR, Perkin Elmer, USA).

[2] = substrate: OC[C@H]1OC(O)[C@H](O)[C@@H](O)[C@@H]1O; experiment: cells, lysate or membranes; details: other: GLUT3S66Y in hxt^0 cells

Protein	Km [1] [µM]	Km [2] [µM]
GLUT3 (Homo sapiens) (protein, expressed in transfected cells; host or cells: Saccharomyces cerevisiae hxt0 strain EBY.S7 (fgy1)) MGTQKVTPALIFAITVATIGSFQFGYNTGVINAPEKIIKEFINKTLTDKGNAPPSEVLLTSLWSLSVAIFSVGGMIGSFSVGLFVNRFGRRNSMLIVNLLAVTGGCFMGLCKVAKSVEMLILGRLVIGLFCGLCTGFVPMYIGEISPTALRGAFGTLNQLGIVVGILVAQIFGLEFILGSEELWPLLLGFTILPAILQSAALPFCPESPRFLLINRKEEENAKQILQRLWGTQDVSQDIQEMKDESARMSQEKQVTVLELFRVSSYRQPIIISIVLQLSQQLSGINAVFYYSTGIFKDAGVQEPIYATIGAGVVNTIFTVVSLFLVERAGRRTLHMIGLGGMAFCSTLMTVSLLLKDNYNGMSFVCIGAILVFVAFFEIGPGPIPWFIVAELFSQGPRPAAMAVAGCSNWTSNFLVGLLFPSAAHYLGAYVFIIFTGFLITFLAFTFFKVPETRGRTFEDITRAFEGQAHGADRSGKDGVMEMNSIEPAKETTTNV	3110 ± 420	
GLUT3S66Y (Homo sapiens; S66Y) (protein) MGTQKVTPALIFAITVATIGSFQFGYNTGVINAPEKIIKEFINKTLTDKGNAPPSEVLLTSLWSLYVAIFSVGGMIGSFSVGLFVNRFGRRNSMLIVNLLAVTGGCFMGLCKVAKSVEMLILGRLVIGLFCGLCTGFVPMYIGEISPTALRGAFGTLNQLGIVVGILVAQIFGLEFILGSEELWPLLLGFTILPAILQSAALPFCPESPRFLLINRKEEENAKQILQRLWGTQDVSQDIQEMKDESARMSQEKQVTVLELFRVSSYRQPIIISIVLQLSQQLSGINAVFYYSTGIFKDAGVQEPIYATIGAGVVNTIFTVVSLFLVERAGRRTLHMIGLGGMAFCSTLMTVSLLLKDNYNGMSFVCIGAILVFVAFFEIGPGPIPWFIVAELFSQGPRPAAMAVAGCSNWTSNFLVGLLFPSAAHYLGAYVFIIFTGFLITFLAFTFFKVPETRGRTFEDITRAFEGQAHGADRSGKDGVMEMNSIEPAKETTTNV		1420 ± 170

Reference: article PMC8791944, “GLUT3 inhibitor discovery through in silico ligand screening and in vivo validation in eukaryotic expression systems” (Scientific Reports, 2022)
